Reference: patent US20050106100A1, “Compounds containing matrix metalloproteinase substrates and methods of their use” (priority 2003, published 2005)

B1: MMP-2 (Homo sapiens) (protein)
chain: YNFFPRKPKWDKNQITYRIIGYTPDLDPETVDDAFARAFQVWSDVTPLRFSRIHDGEADIMINFGRWEHGDGYPFDGKDGLLAHAFAPGTGVGGDSHFDDDELWTLGEGQVVRVKYGNADGEYCKFPFLFNGKEYNSCTDTGRSDGFLWCSTTYNFEKDGKYGFCPHEALFTMGGNAEGQPCKFPFRFQGTSYDSCTTEGRTDGYRWCGTTEDYDRDKKYGFCPETAMSTVGGNSEGAPCVFPFTFLGNKYESCTSAGRSDGKMWCATTANYDDDRKWGFCPDQGYSLFLVAAHEFGHAMGLEHSQDPGALMAPIYTYTKNFRLSQDDIKGIQELYGASPDIDLGTGPTPTLGPVTPEICKQDIVFDGIAQIRGEIFFFKDRFIWRTVTPRDKPMGPLLVATFWPELPEKIDAVYEAPQEEKAVFFAGNEYWIYSASTLERGYPKPLTSLGLPPDVQRVDAAFNWSKNKKTYIFAGDKFWRYNEVKKKMDPGFPKLIADAWNAIPDNLDAVVDLQGGGHSYFFKGAYYLKLENQSLKSVKFGSIKSDWLGC
B2: mouse MMP9 (Mus musculus) (protein)
chain: FQTFKGLKWDHHNITYWIQNYSEDLPRDMIDDAFARAFAVWGEVAPLTFTRVYGPEADIVIQFGVAEHGDGYPFDGKDGLLAHAFPPGAGVQGDAHFDDDELWSLGKGVVIPTYYGNSNGAPCHFPFTFEGRSYSACTTDGRNDGTPWCSTTADYDKDGKFGFCPSERLYTEHGNGEGKPCVFPFIFEGRSYSACTTKGRSDGYRWCATTANYDQDKLYGFCPTRVDATVVGGNSAGELCVFPFVFLGKQYSSCTSDGRRDGRLWCATTSNFDTDKKWGFCPDQGYSLFLVAAHEFGHALGLDHSSVPEALMYPLYSYLEGFPLNKDDIDGIQYLYGRGSKPDPRPPATTTTEPQPTAPPTMCPTIPPTAYPTVGPTVGPTGAPSPGPTSSPSPGPTGAPSPGPTAPPTAGSSEASTESLSPADNPCNVDVFDAIAEIQGALHFFKDGWYWKFLNHRGSPLQGPFLTARTWPALPATLDSAFEDPQTKRVFFFSGRQMWVYTGKTVLGPRSLDKLGLGPEVTHVSGLLPRRLGKALLFSKGRVWRFDLKSQKVDPQSVIRVDKEFSGVPWNSHDIFQYQDKAYFCHGKFFWRVSFQNEVNKVDHEVNQVDDVGYVTYDLLQCP
notes: The turnover of different substrates by active MMP-2 and active MMP-9 was determined using this assay

What was measured:
Assay type in all cases: biochemical
[1] = substrate: CC(=O)N1CCC[C@H]1C(=O)N[C@@H](CCCN)C(=O)NCC(=O)N[C@@H](CCc1ccccc1)C(=O)N[C@@H](CC(C)C)C(=O)NNC(=O)c1ccc(N/N=C/c2ccccc2S(=O)(=O)O)nc1; assay: Kinetic measurements of substrate hydrolysis by active MMP-2 (radio HPLC assay); conditions: other: active MMP-2 final concentration 10 nM, 37° C., 60 minutes, radiolabeled test substrate, pH 7.5
Experimental: (§2) Purified MMP-2 (10 μg) or MMP-9 (10 μg) were reconstituted in 100 μL of TCN buffer. […] Pro-MMP-2 was activated by incubation with 2 nM APMA for 2 hours at 37° C. At the end of incubation 100 μl of 100% glycerol was added to active MMP-2 and active MMP-9 (final concentration 50% glycerol). Active MMP-2 and active MMP-9 were aliquoted and stored at −20° C.
(§3) The level of active protease was always quantified by active site titration studies prior to kinetic studies. The active site of MMP-9 and MMP-2 was titrated using the GM6001 dissolved in 100% DMSO at a stock concentration of 2.5 mM. Dilutions (1:2) of GM6001 were prepared in TCN buffer to give a final concentration of 5 nM to 0.04 nM GM6001 in the active site titration assay. Activated MMP-2 or activated MMP-9 (2 nM) was preincubated with increasing concentrations of GM60001 at 37° C. for 15 minutes in 96 well black microtiter plates. […] Plates were read on fluorescence spectrophotometer at excitation wavelength of 320 nm and emission wavelength of 395 nm. The concentration of the active enzyme was determined using the Morrison equation and Kaleidagraph software (Reading, Pa.).
(§4) The kinetic parameters of substrate hydrolysis were determined using a radio HPLC assay. The turnover of different substrates by active MMP-2 and active MMP-9 was determined using this assay. […] The radiolabel was detected by a IN/US beta ram detector. […]

[2] = substrate: CC(=O)N1CCC[C@H]1C(=O)N[C@@H](CC(C)C)C(=O)NCC(=O)N[C@@H](CCc1ccccc1)C(=O)N[C@@H](Cc1ccc(O)cc1)C(=O)N[C@@H](CC(C)C)C(=O)NNC(=O)c1ccc(N/N=C/c2ccccc2S(=O)(=O)ON)nc1; assay: as above; conditions: other: active MMP-2 final concentration 10 nM, 37° C., 60 minutes, radiolabeled test substrate, pH 7.5
Experimental: as §2, §3, §4

[3] = substrate: CC(=O)N1CCC[C@H]1C(=O)N[C@@H](CCCN)C(=O)NCC(=O)N[C@@H](CCc1ccccc1)C(=O)N[C@@H](CC(C)C)C(=O)NNC(=O)c1ccc(N/N=C/c2ccccc2S(=O)(=O)O)nc1; assay: Substrate hydrolysis assay with mouse MMP9; conditions: other: mouse MMP9; pH 7.5
Experimental: (§1) The kinetic parameters of substrate hydrolysis were determined using a radio HPLC assay. The turnover of different substrates by active MMP-2 and active MMP-9 was determined using this assay. A stock solution of different test substrates (10 mM) was prepared in 100% DMSO. Stock solutions of the test substrates were diluted 1000 fold (10 nM) in buffer (50 mM Hepes/pH 7.5, 10 mM CaCl2, 0.1% Brij) to give working stock solution. Working stock solution of the test substrate (15 μl) was added to buffer (120 μL) in a test tube and warmed at 37° C. for 2 minutes. To this solution 15 μL of working stock of active MMP-2 (final concentration 10 nM) or active MMP-9 was added (final concentration 2 nM). Finally, 4 μCi of radiolabeled test substrate was added and the solution was mixed and immediately 67.5 µL of the mix was transferred to HPLC vials containing 7.5 μl of 0.5M EDTA for t=0 minute measurement. The rest of the mix in the test tube was incubated at 37° C. for 60 minutes. At the 60 minute time point 67.5 μl of the mix was transferred to the HPLC vial containing 7.5 μL of 0.5 M EDTA for t=60 minute measurement. […] Mobile phase A (MPA) was 25 mM ammonium acetate and mobile phase B (MPB) was 100% acetonitrile. […] The radiolabel was detected by a IN/US beta ram detector. […]

[4] = substrate: CC(=O)N1CCC[C@H]1C(=O)N[C@@H](CC(C)C)C(=O)NCC(=O)N[C@@H](CCc1ccccc1)C(=O)N[C@@H](Cc1ccc(O)cc1)C(=O)N[C@@H](CC(C)C)C(=O)NNC(=O)c1ccc(N/N=C/c2ccccc2S(=O)(=O)ON)nc1; assay: Substrate hydrolysis assay with mouse MMP9; conditions: other: mouse MMP9; pH 7.5
Experimental: as §1

Row | Protein | kcat/Km [1] | kcat/Km [2] | kcat/Km [3] | kcat/Km [4]
1 | B1 | 63700 M⁻¹ s⁻¹ | 63200 M⁻¹ s⁻¹ |  | 
2 | B2 |  |  | 897 M⁻¹ s⁻¹ | > 100000 M⁻¹ s⁻¹
